Assay results as given in patent US20050282743A1, “Molecular interactions in cells” (Arbor Vita Corporation, priority 2001, published 2005).
Each block holds one compound with its values, some of them ahead of it. Ends that are not written are not given here. Peptide text beside a SMILES is read from it. * marks the point of attachment. Biotin = O=C1N[C@H]2[C@H](CS[C@H]2CCCCC(=O)*)N1

What was measured:
Assay in all cases: G' assay (10 uM PL peptide), results of TABLE 7 and TABLE 12
Format in all cases: binding
[1] = biological target: T1, PDZ protein (GST-PDZ fusion) (Homo sapiens, UniProt Q76G19); conditions: PDZ LU1, PDZ Domain 1
T1 construct: made in house; host or cells: E. coli (DH5alpha, BL21 or JM109)
T1 sequence (Q76G19 1-769): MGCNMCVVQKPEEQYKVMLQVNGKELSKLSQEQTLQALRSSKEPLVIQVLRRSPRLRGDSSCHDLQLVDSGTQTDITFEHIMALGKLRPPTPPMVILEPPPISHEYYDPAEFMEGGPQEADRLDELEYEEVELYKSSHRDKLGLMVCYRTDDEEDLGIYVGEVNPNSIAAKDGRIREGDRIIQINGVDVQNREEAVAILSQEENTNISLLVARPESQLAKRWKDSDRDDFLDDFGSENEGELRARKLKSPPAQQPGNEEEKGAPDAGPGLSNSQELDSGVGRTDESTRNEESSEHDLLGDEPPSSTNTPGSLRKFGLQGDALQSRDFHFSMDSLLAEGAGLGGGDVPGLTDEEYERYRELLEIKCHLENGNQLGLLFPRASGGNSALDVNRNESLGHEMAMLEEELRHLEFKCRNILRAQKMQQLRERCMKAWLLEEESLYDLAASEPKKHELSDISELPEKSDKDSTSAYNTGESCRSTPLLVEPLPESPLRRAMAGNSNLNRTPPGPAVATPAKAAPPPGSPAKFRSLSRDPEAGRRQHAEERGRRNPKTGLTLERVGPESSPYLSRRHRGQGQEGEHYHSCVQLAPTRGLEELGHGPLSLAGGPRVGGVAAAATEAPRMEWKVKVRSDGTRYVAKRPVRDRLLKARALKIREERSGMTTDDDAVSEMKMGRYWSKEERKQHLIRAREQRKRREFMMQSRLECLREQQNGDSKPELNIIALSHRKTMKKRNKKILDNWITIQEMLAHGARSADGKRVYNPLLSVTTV
Summary of the method: (§1)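 Biotin-PL peptide (N-term label), 10 uM vs GST-PDZ; protein 5 ug/ml by default. A450 nm binned: 1 = 0-1, 2 = 1-2, 3 = 2-3, 4 = 3-4, 5 = >4 on >2 repeats, 0 = no binding.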

[2] = biological target: T2, PDZ protein (GST-PDZ fusion) (Homo sapiens, UniProt Q9Y566); conditions: PDZ SHANK1, PDZ Domain 1
T2 construct: made in house; host or cells: E. coli (DH5alpha, BL21 or JM109)
T2 sequence (Q9Y566 whole entry, the tested form may be a part): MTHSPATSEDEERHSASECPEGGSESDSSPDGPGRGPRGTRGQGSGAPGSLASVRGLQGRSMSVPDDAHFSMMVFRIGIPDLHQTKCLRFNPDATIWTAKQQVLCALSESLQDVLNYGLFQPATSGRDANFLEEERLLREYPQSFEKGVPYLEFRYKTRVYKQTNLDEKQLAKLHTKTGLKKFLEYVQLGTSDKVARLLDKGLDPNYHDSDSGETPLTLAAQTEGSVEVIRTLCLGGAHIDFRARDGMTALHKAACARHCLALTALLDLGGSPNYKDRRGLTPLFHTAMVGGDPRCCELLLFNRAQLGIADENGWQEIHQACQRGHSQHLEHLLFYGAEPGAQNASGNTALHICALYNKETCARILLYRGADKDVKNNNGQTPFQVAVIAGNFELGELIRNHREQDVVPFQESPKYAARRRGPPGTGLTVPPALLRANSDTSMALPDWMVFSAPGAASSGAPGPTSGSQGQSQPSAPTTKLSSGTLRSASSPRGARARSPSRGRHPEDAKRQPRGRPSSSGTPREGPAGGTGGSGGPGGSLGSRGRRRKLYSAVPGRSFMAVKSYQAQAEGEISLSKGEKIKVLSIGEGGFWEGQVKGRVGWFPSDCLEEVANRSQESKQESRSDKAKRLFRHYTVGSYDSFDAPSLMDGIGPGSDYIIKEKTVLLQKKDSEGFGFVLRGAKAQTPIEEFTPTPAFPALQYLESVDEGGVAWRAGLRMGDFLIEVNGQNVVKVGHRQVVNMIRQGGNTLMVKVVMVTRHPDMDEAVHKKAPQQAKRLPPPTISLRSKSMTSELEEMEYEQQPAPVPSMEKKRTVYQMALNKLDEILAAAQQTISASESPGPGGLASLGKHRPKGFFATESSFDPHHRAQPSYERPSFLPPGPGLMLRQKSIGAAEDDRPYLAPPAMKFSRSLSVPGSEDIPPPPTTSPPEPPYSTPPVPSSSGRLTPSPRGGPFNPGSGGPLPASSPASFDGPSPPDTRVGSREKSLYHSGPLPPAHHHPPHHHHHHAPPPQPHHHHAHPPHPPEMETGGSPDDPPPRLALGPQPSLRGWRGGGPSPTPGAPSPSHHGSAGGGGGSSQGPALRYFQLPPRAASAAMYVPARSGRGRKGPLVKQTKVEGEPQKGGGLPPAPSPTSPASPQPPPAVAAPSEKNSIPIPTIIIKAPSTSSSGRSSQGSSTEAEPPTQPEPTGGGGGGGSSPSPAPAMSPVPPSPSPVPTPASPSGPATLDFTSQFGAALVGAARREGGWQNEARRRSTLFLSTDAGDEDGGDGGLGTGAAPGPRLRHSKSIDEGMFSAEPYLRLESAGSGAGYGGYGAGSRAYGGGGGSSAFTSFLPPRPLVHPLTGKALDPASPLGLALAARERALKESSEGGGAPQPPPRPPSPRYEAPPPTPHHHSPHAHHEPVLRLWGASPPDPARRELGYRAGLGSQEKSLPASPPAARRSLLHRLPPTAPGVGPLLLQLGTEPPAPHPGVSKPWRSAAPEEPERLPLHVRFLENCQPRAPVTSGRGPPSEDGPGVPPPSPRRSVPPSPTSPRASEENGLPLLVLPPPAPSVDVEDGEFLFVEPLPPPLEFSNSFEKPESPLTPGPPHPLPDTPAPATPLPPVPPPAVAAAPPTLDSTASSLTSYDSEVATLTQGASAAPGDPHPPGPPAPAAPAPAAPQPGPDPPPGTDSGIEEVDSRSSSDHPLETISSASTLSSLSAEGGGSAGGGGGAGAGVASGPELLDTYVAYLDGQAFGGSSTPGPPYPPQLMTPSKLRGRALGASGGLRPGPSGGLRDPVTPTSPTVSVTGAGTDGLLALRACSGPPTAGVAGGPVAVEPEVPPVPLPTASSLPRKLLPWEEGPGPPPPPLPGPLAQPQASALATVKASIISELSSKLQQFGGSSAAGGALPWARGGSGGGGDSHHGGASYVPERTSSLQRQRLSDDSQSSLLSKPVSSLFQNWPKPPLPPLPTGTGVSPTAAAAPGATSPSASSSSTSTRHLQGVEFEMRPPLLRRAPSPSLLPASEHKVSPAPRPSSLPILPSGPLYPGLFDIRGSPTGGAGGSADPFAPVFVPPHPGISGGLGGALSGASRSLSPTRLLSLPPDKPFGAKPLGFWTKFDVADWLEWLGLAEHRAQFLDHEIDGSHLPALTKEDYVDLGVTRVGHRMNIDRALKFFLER
Summary of the method: as §1

[3] = biological target: T3, PDZ protein (GST-PDZ fusion) (Homo sapiens, UniProt Q8N3R9); conditions: PDZ FLJ 12615 (PALS-1), PDZ Domain 1
T3 construct: made in house; host or cells: E. coli (DH5alpha, BL21 or JM109)
T3 sequence (Q8N3R9 whole entry, the tested form may be a part): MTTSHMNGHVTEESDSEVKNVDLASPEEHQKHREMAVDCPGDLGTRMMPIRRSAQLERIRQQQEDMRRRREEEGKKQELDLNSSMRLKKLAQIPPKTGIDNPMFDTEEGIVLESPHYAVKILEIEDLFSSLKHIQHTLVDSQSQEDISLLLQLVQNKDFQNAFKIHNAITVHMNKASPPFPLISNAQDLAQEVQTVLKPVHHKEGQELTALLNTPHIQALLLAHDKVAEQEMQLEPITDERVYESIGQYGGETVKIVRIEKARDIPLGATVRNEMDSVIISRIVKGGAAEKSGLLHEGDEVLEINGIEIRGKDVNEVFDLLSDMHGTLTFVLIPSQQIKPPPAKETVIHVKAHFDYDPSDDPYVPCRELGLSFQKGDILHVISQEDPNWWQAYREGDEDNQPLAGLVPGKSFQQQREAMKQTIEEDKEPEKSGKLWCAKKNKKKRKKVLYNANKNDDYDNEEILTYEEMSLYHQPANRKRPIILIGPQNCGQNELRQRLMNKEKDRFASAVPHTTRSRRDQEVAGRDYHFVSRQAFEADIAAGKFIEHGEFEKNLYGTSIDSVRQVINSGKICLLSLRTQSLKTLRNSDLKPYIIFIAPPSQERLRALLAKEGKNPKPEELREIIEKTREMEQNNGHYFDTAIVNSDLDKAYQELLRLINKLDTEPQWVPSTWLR
Summary of the method: as §1

[4] = biological target: T4, PDZ protein (GST-PDZ fusion) (Homo sapiens, UniProt Q9H6Y5); conditions: PDZ FLJ21687, PDZ Domain 1
T4 construct: made in house; host or cells: E. coli (DH5alpha, BL21 or JM109)
T4 sequence (Q9H6Y5 1-334): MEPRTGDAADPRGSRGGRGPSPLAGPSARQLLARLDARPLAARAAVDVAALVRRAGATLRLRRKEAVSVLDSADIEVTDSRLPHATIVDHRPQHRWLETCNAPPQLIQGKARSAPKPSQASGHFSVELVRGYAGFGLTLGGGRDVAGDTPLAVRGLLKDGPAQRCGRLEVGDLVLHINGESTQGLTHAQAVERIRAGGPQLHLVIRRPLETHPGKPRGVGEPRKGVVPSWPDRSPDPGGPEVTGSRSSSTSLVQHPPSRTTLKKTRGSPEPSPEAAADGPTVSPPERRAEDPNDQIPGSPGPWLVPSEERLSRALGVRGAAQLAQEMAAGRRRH
Summary of the method: as §1

[5] = biological target: T5, PDZ protein (GST-PDZ fusion) (Homo sapiens, UniProt Q9H190)
T5 construct: made in house; host or cells: E. coli (DH5alpha, BL21 or JM109)
T5 sequence (Q9H190 1-292): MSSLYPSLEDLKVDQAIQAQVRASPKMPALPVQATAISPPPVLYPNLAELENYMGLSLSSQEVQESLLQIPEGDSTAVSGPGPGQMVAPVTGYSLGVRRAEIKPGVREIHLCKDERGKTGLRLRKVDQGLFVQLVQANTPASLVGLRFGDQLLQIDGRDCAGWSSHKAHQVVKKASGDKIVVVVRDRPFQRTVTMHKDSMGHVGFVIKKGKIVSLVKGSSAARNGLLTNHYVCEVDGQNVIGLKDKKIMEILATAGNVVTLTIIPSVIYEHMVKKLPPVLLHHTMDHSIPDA
Summary of the method: as §1

[6] = biological target: T6, PDZ protein (GST-PDZ fusion) (Homo sapiens, UniProt Q8TDM6); conditions: PDZ DLG5, PDZ Domain 2
T6 construct: made in house; host or cells: E. coli (DH5alpha, BL21 or JM109)
T6 sequence (Q8TDM6 whole entry, the tested form may be a part): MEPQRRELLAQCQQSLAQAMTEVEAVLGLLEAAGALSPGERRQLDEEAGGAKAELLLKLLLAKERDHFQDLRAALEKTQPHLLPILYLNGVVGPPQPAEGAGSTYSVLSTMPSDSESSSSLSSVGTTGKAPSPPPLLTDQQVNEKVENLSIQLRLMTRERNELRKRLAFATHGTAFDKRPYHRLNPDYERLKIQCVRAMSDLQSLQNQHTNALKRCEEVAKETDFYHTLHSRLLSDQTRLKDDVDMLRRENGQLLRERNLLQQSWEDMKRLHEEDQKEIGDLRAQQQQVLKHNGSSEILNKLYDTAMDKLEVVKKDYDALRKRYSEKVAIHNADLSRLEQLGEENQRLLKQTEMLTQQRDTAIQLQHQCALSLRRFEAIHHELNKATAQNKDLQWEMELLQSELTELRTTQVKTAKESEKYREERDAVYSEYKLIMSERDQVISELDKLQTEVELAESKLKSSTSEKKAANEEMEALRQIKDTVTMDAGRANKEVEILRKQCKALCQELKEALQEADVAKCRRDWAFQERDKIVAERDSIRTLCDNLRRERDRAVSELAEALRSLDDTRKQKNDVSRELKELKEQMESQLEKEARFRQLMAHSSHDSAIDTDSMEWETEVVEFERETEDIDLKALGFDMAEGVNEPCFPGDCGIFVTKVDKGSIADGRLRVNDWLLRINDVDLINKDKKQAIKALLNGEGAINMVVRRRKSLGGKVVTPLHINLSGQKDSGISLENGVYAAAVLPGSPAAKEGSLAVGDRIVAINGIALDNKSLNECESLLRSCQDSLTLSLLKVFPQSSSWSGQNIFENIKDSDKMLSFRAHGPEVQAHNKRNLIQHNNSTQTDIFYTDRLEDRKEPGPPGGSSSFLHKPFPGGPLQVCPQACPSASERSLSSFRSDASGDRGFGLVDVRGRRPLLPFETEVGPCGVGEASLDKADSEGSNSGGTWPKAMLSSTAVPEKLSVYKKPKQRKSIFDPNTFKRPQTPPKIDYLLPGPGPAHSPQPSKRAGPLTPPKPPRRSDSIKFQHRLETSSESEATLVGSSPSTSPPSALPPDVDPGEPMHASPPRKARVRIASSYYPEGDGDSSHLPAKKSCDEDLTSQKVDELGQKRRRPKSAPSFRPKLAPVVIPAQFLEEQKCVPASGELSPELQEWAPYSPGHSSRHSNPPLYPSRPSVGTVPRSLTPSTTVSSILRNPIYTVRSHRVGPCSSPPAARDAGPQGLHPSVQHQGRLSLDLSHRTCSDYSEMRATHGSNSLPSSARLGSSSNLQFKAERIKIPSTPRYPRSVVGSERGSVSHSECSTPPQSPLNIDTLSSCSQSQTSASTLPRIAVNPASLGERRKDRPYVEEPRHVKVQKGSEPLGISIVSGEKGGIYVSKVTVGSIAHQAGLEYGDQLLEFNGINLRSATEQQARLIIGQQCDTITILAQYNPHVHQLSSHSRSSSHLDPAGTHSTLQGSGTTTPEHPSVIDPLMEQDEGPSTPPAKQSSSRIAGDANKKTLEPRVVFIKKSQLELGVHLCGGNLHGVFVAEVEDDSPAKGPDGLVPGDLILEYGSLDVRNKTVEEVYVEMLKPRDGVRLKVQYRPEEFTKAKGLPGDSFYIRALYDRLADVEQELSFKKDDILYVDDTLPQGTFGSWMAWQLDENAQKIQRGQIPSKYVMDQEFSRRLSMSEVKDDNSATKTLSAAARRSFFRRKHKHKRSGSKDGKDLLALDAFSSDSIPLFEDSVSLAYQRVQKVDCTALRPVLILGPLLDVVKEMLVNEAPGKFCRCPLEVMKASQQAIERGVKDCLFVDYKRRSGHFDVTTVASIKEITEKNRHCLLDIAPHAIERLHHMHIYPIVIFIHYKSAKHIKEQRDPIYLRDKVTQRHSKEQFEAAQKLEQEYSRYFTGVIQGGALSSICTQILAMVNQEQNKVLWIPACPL
Summary of the method: as §1

[7] = biological target: T7, PDZ protein (GST-PDZ fusion) (Homo sapiens, UniProt Q86UR5); conditions: PDZ KIAA0340, PDZ Domain 1
T7 construct: made in house; host or cells: E. coli (DH5alpha, BL21 or JM109)
Summary of the method: as §1

Classification [1]: 4 (A450 nm 3-4)
Compound: A2AC_HUMAN (Modified) (Biotin-DFRPSFKHILFRRARRGFRQ; not fully specified)

Compound: CC[C@H](C)[C@H](NC(=O)[C@H](CC(=O)O)NC(=O)[C@H](CCC(=O)O)NC(=O)[C@H](CCCNC(=N)N)NC(=O)[C@@H](NC(=O)CCCC[C@@H]1SC[C@@H]2NC(=O)N[C@@H]21)[C@@H](C)O)C(=O)N[C@@H](Cc1ccc(O)cc1)C(=O)N[C@H](C(=O)N[C@@H](CC(N)=O)C(=O)N[C@@H](Cc1ccc(O)cc1)C(=O)N1CCC[C@H]1C(=O)N[C@H](C(=O)N[C@@H](Cc1ccccc1)C(=O)N[C@@H](CO)C(=O)N[C@@H](CCCNC(=N)N)C(=O)N[C@@H](CCCNC(=N)N)C(=O)N1CCC[C@H]1C(=O)N[C@@H](CCCCN)C(=O)N[C@H](C(=O)N[C@@H](CCCNC(=N)N)C(=O)N[C@H](C(=O)O)C(C)C)[C@@H](C)O)[C@@H](C)O)C(C)C [DNAM-1] (Biotin-TREDIYVNYPTFSRRPKTRV-OH; C-terminus assumed)
Classification [2]: 5 (A450 nm of 4 more than 2× repeated)

Compound: CSCC[C@H](NC(=O)[C@H](C)NC(=O)[C@H](CCCNC(=N)N)NC(=O)CNC(=O)[C@@H](NC(=O)[C@H](Cc1c[nH]c2ccccc12)NC(=O)[C@H](CCCNC(=N)N)NC(=O)CNC(=O)CCCC[C@@H]1SC[C@@H]2NC(=O)N[C@@H]21)[C@@H](C)O)C(=O)N[C@@H](CO)C(=O)N[C@@H](C)C(=O)N[C@@H](Cc1c[nH]c2ccccc12)C(=O)N[C@@H](CCCCN)C(=O)N1CCC[C@H]1C(=O)N[C@H](C(=O)N[C@@H](CCCNC(=N)N)C(=O)N[C@@H](CCCNC(=N)N)C(=O)N[C@@H](CCC(=O)O)C(=O)N[C@H](C(=O)N[C@@H](CCC(=O)O)C(=O)N[C@H](C(=O)O)C(C)C)[C@@H](C)O)[C@@H](C)O [HPV E6 #35 (modified)] (Biotin-GRWTGRAMSAWKPTRRETEV-OH; C-terminus assumed)
Classification [3]: 1 (A450 nm 0-1)

Classification [4]: 1 (A450 nm 0-1)
Classification ([5]; PDZ SITAC-18, PDZ Domain 1): 4 (A450 nm 3-4)
Classification ([5]; PDZ SITAC-18, PDZ Domain 2): 4 (A450 nm 3-4)
Classification [6]: 1 (A450 nm 0-1)
Classification [7]: 1 (A450 nm 0-1)
Compound: A2AA_HUMAN (modified) (Biotin-HDFRRAFKKILARGDRKRIV; not fully specified)
